Measurements reported in the array DNA melting data of Ke et al..

Experiment: melting temperature; melt of duplexes
Conditions: sodium 0.0675 M; strand 1 µM

Substance | Tm [°C]
CGACGTGCAAAATGTGCTG+CAGCACATAAAGCACGTCG ((((((((...((((((((+))))))))...)))))))) | 50.8
CGACGTGCAAAATGTGCTG+CAGCACATACGGCACGTCG ((((((((...((((((((+))))))))...)))))))) | 48
CGACGTGCAAAATGTGCTG+CAGCACATACTGCACGTCG (((((((((..((((((((+))))))))..))))))))) | 50.4
CGACGTGCAAAATGTGCTG+CAGCACATAGGGCACGTCG ((((((((...((((((((+))))))))...)))))))) | 48.7
CGACGTGCAAAATGTGCTG+CAGCACATAGTGCACGTCG (((((((((..((((((((+))))))))..))))))))) | 47
CGACGTGCAAAATGTGCTG+CAGCACATATTGCACGTCG ((((((((((.((((((((+)))))))).)))))))))) | 54.7
CGACGTGCAAAATGTGCTG+CAGCACATCATGCACGTCG (((((((((..((((((((+))))))))..))))))))) | 49.9
CGACGTGCAAAATGTGCTG+CAGCACATCCCGCACGTCG ((((((((...((((((((+))))))))...)))))))) | 47.2
CGACGTGCAAAATGTGCTG+CAGCACATCCGGCACGTCG ((((((((...((((((((+))))))))...)))))))) | 49.1
CGACGTGCAAAATGTGCTG+CAGCACATCGAGCACGTCG ((((((((...((((((((+))))))))...)))))))) | 49.2
CGACGTGCAAAATGTGCTG+CAGCACATCGCGCACGTCG ((((((((...((((((((+))))))))...)))))))) | 48.9
CGACGTGCAAAATGTGCTG+CAGCACATGAAGCACGTCG ((((((((...((((((((+))))))))...)))))))) | 53.7
CGACGTGCAAAATGTGCTG+CAGCACATGGGGCACGTCG ((((((((...((((((((+))))))))...)))))))) | 51.7
CGACGTGCAAAATGTGCTG+CAGCACATGTCGCACGTCG ((((((((.(.((((((((+)))))))).).)))))))) | 53.3
CGACGTGCAAAATGTGCTG+CAGCACATTATGCACGTCG (((((((((.(((((((((+))))))))).))))))))) | 55.1
CGACGTGCAAAATGTGCTG+CAGCACATTCAGCACGTCG ((((((((..(((((((((+)))))))))..)))))))) | 52.1
CGACGTGCAAAATGTGCTG+CAGCACATTTTGCACGTCG (((((((((((((((((((+))))))))))))))))))) | 62.4
CGACGTGCAACATGTGCTG+CAGCACATAAAGCACGTCG ((((((((...((((((((+))))))))...)))))))) | 48.9
CGACGTGCAACATGTGCTG+CAGCACATAACGCACGTCG ((((((((...((((((((+))))))))...)))))))) | 48.2
CGACGTGCAACATGTGCTG+CAGCACATACTGCACGTCG (((((((((..((((((((+))))))))..))))))))) | 49.8
CGACGTGCAACATGTGCTG+CAGCACATAGAGCACGTCG ((((((((...((((((((+))))))))...)))))))) | 48.9
CGACGTGCAACATGTGCTG+CAGCACATATAGCACGTCG ((((((((.(.((((((((+)))))))).).)))))))) | 49.1
CGACGTGCAACATGTGCTG+CAGCACATATTGCACGTCG ((((((((((.((((((((+)))))))).)))))))))) | 54.3
CGACGTGCAACATGTGCTG+CAGCACATCAAGCACGTCG ((((((((...((((((((+))))))))...)))))))) | 47.1

Substance | Tm [°C]
CGACGTGCAACATGTGCTG+CAGCACATCATGCACGTCG (((((((((..((((((((+))))))))..))))))))) | 49
CGACGTGCAACATGTGCTG+CAGCACATCGCGCACGTCG ((((((((...((((((((+))))))))...)))))))) | 47.7
CGACGTGCAACATGTGCTG+CAGCACATCGTGCACGTCG (((((((((..((((((((+))))))))..))))))))) | 47.9
CGACGTGCAACATGTGCTG+CAGCACATCTGGCACGTCG ((((((((.(.((((((((+)))))))).).)))))))) | 48.9
CGACGTGCAACATGTGCTG+CAGCACATCTTGCACGTCG ((((((((((.((((((((+)))))))).)))))))))) | 52.5
CGACGTGCAACATGTGCTG+CAGCACATGACGCACGTCG ((((((((..(((((((((+)))))))))..)))))))) | 50.9
CGACGTGCAACATGTGCTG+CAGCACATGCGGCACGTCG ((((((((..(((((((((+)))))))))..)))))))) | 53.5
CGACGTGCAACATGTGCTG+CAGCACATGGGGCACGTCG ((((((((..(((((((((+)))))))))..)))))))) | 58.9
CGACGTGCAACATGTGCTG+CAGCACATGTCGCACGTCG ((((((((.((((((((((+)))))))))).)))))))) | 57.8
CGACGTGCAACATGTGCTG+CAGCACATGTTGCACGTCG (((((((((((((((((((+))))))))))))))))))) | 64.5
CGACGTGCAACATGTGCTG+CAGCACATTAAGCACGTCG ((((((((...((((((((+))))))))...)))))))) | 49.2
CGACGTGCAACATGTGCTG+CAGCACATTAGGCACGTCG ((((((((...((((((((+))))))))...)))))))) | 48.9
CGACGTGCAAGATGTGCTG+CAGCACATACGGCACGTCG ((((((((...((((((((+))))))))...)))))))) | 49.2
CGACGTGCAAGATGTGCTG+CAGCACATAGCGCACGTCG ((((((((...((((((((+))))))))...)))))))) | 49.8
CGACGTGCAAGATGTGCTG+CAGCACATATAGCACGTCG ((((((((.(.((((((((+)))))))).).)))))))) | 52
CGACGTGCAAGATGTGCTG+CAGCACATATCGCACGTCG ((((((((.(.((((((((+)))))))).).)))))))) | 50.3
CGACGTGCAAGATGTGCTG+CAGCACATCCCGCACGTCG ((((((((..(((((((((+)))))))))..)))))))) | 52.9
CGACGTGCAAGATGTGCTG+CAGCACATCGCGCACGTCG ((((((((..(((((((((+)))))))))..)))))))) | 58.4
CGACGTGCAAGATGTGCTG+CAGCACATCGTGCACGTCG (((((((((.(((((((((+))))))))).))))))))) | 57.4
CGACGTGCAAGATGTGCTG+CAGCACATCTAGCACGTCG ((((((((.((((((((((+)))))))))).)))))))) | 57.9
CGACGTGCAAGATGTGCTG+CAGCACATGGCGCACGTCG ((((((((...((((((((+))))))))...)))))))) | 51.3
CGACGTGCAAGATGTGCTG+CAGCACATGGGGCACGTCG ((((((((...((((((((+))))))))...)))))))) | 50.8
CGACGTGCAAGATGTGCTG+CAGCACATGTCGCACGTCG ((((((((.(.((((((((+)))))))).).)))))))) | 51.3
CGACGTGCAAGATGTGCTG+CAGCACATGTTGCACGTCG ((((((((((.((((((((+)))))))).)))))))))) | 57.8

Substance | Tm [°C]
CGACGTGCAAGATGTGCTG+CAGCACATTAGGCACGTCG ((((((((...((((((((+))))))))...)))))))) | 51.3
CGACGTGCAAGATGTGCTG+CAGCACATTCCGCACGTCG ((((((((...((((((((+))))))))...)))))))) | 49.4
CGACGTGCAAGATGTGCTG+CAGCACATTCGGCACGTCG ((((((((...((((((((+))))))))...)))))))) | 51.3
CGACGTGCAAGATGTGCTG+CAGCACATTCTGCACGTCG (((((((((..((((((((+))))))))..))))))))) | 53.2
CGACGTGCAAGATGTGCTG+CAGCACATTGCGCACGTCG ((((((((...((((((((+))))))))...)))))))) | 52.9
CGACGTGCAAGATGTGCTG+CAGCACATTGGGCACGTCG ((((((((...((((((((+))))))))...)))))))) | 51.5
CGACGTGCAAGATGTGCTG+CAGCACATTGTGCACGTCG (((((((((..((((((((+))))))))..))))))))) | 50.6
CGACGTGCAAGATGTGCTG+CAGCACATTTTGCACGTCG ((((((((((.((((((((+)))))))).)))))))))) | 57.3
CGACGTGCAATATGTGCTG+CAGCACATAATGCACGTCG (((((((((.(((((((((+))))))))).))))))))) | 54.6
CGACGTGCAATATGTGCTG+CAGCACATACAGCACGTCG ((((((((..(((((((((+)))))))))..)))))))) | 50.3
CGACGTGCAATATGTGCTG+CAGCACATATTGCACGTCG (((((((((((((((((((+))))))))))))))))))) | 61.2
CGACGTGCAATATGTGCTG+CAGCACATCAAGCACGTCG ((((((((...((((((((+))))))))...)))))))) | 48
CGACGTGCAATATGTGCTG+CAGCACATCAGGCACGTCG ((((((((...((((((((+))))))))...)))))))) | 48.7
CGACGTGCAATATGTGCTG+CAGCACATCATGCACGTCG (((((((((..((((((((+))))))))..))))))))) | 50.3
CGACGTGCAATATGTGCTG+CAGCACATCCAGCACGTCG ((((((((...((((((((+))))))))...)))))))) | 48.1
CGACGTGCAATATGTGCTG+CAGCACATCGAGCACGTCG ((((((((...((((((((+))))))))...)))))))) | 48.2
CGACGTGCAATATGTGCTG+CAGCACATCGCGCACGTCG ((((((((...((((((((+))))))))...)))))))) | 47.4
CGACGTGCAATATGTGCTG+CAGCACATGAAGCACGTCG ((((((((...((((((((+))))))))...)))))))) | 52.3
CGACGTGCAATATGTGCTG+CAGCACATGAGGCACGTCG ((((((((...((((((((+))))))))...)))))))) | 51.3
CGACGTGCAATATGTGCTG+CAGCACATGCGGCACGTCG ((((((((...((((((((+))))))))...)))))))) | 49.7
CGACGTGCAATATGTGCTG+CAGCACATGGTGCACGTCG (((((((((..((((((((+))))))))..))))))))) | 51
CGACGTGCAATATGTGCTG+CAGCACATTAAGCACGTCG ((((((((...((((((((+))))))))...)))))))) | 50.1
CGACGTGCAATATGTGCTG+CAGCACATTACGCACGTCG ((((((((...((((((((+))))))))...)))))))) | 49.7
CGACGTGCAATATGTGCTG+CAGCACATTATGCACGTCG (((((((((..((((((((+))))))))..))))))))) | 52.1
